Test results: patent US20040197818A1 (UNIVERSITY OF UTAH RESEARCH FOUNDATION, published 2004)

How the values were obtained:
[1] = target: T1, HERG (human, UniProt Q12809 1-1159); test: cell-based or functional assay
[2] = target: T1, HERG; test: cell-based or functional assay; remark: listed apart in the source

T1 sequence (Q12809 whole entry): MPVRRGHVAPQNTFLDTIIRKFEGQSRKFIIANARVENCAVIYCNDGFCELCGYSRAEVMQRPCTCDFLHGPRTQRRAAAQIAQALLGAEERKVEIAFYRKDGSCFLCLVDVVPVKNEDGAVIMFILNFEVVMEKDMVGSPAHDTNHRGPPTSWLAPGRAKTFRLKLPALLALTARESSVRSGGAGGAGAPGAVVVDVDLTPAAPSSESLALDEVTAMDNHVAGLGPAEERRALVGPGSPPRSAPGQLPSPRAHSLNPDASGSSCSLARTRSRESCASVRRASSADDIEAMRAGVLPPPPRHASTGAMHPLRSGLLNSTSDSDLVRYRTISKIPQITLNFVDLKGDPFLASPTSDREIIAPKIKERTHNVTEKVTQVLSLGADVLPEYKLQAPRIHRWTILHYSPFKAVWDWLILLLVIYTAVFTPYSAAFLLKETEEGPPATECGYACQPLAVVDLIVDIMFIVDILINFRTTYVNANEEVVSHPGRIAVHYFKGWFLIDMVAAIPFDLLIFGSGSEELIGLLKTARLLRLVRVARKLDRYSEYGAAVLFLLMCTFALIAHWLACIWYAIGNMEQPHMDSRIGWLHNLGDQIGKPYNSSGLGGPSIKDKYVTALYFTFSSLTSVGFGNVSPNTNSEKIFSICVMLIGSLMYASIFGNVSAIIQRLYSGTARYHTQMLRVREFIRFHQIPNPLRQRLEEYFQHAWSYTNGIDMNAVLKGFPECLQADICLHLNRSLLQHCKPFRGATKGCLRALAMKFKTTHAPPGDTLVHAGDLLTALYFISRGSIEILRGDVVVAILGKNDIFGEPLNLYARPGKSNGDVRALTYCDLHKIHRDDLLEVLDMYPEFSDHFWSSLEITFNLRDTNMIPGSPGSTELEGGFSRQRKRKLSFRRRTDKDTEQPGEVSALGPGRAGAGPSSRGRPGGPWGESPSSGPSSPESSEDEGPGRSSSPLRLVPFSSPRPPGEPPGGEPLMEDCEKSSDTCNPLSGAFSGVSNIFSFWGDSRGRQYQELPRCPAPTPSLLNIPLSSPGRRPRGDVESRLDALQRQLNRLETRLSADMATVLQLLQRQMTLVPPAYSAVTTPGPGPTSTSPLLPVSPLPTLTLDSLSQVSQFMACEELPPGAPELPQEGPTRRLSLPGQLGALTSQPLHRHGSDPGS

Binder	deactivation rate, oocytes [1] [fold]	deactivation rate, plasma-like ionic conditions, whole-cell [1] [fold]	deactivation rate at -120 mV, CHO cells [1] [fold]	activation V1/2 [2] [mV]	deactivation fast time constant [2]	deactivation ratio If/(Is + If) [2]	deactivation slow time constant [2]	deactivation rate against channels with wild type hMiRP1 [1] [fold]
rMiRP1 (other, 35S-methionine label in the in vitro binding assay) MTTLANLTQTLEDAFKKVFITYMDSWRRNTTAEQQALQARVDAENFYYVILYLMVMIGMFAFIVVAILVSTVKSKRREHSQDPYHQYIVEDWQQKYRSQILHLEDSKATIHENLGATGFTVSP	7	~2						
wild type human MiRP1 (other) MSTLSNFTQTLEDVFRRIFITYMDNWRQNTTAEQEALQAKVDAENFYYVILYLMVMIGMFSFIIVAILVSTVKSKRREHSNDPYHQYIVEDWQEKYKSQILNLEESKATIHENIGAAGFKMSP			~3	-21	80	0.82	483	
T8A-hMiRP1 (other) MSTLSNFAQTLEDVFRRIFITYMDNWRQNTTAEQEALQAKVDAENFYYVILYLMVMIGMFSFIIVAILVSTVKSKRREHSNDPYHQYIVEDWQEKYKSQILNLEESKATIHENIGAAGFKMSP				-29	100	0.83	590	
M54T-hMiRP1 (other) MSTLSNFTQTLEDVFRRIFITYMDNWRQNTTAEQEALQAKVDAENFYYVILYLTVMIGMFSFIIVAILVSTVKSKRREHSNDPYHQYIVEDWQEKYKSQILNLEESKATIHENIGAAGFKMSP				-21	37	0.81	266	~3
Q9E-hMiRP1 (other) MSTLSNFTETLEDVFRRIFITYMDNWRQNTTAEQEALQAKVDAENFYYVILYLMVMIGMFSFIIVAILVSTVKSKRREHSNDPYHQYIVEDWQEKYKSQILNLEESKATIHENIGAAGFKMSP				-12	100	0.8	750	
